Assay results from US20230293705A1, “NANOPARTICLES INCLUDING A GLATIRAMOID USEFUL IN POLYNUCLEOTIDE DELIVERY” (King AbdulAziz University, priority 2017, published 2023).
No end group written: not given here.

Legend:
pDNA (pGL3) = test: Agarose gel electrophoresis of polycation-pDNA nanoparticles; assay type: physicochemical; details: for immobilization of pDNA in agarose gel: N/P ratio of 0.5
Experimental: Nanoparticle Formation. GA-pDNA nanoparticles, K100-pDNA nanoparticles, and K9-pDNA nanoparticles were prepared by adding 15 µL of the GA, K100, or K9 solutions at polymer nitrogen to pDNA phosphate ([…]) of pDNA (TAE Buffer (1x) was used as a solution for DNA storage), followed by repeated pipetting for 20-25 seconds. At that point, 15 µL of CaCl2 (0 or 38 mmol/L) was added to determine the effect of calcium. After formulating, samples were stored at 4° C. for ~20 minutes. PEI-pDNA nanoparticles were prepared by adding 15 µL of PEI solution (N/P ratio of 10) to 10 µL (0.1 µg/µL) of pDNA followed by pipetting for 20-25 seconds. After preparing PEI-pDNA nanoparticles, they were stored at 4° C. for ~20 minutes. All nanoparticles in this study were prepared immediately before each experiment.
Agarose Gel Electrophoresis. GA-pDNA nanoparticles, K100-pDNA nanoparticles, and K9-pDNA nanoparticles were prepared as defined above and subsequently, 4 µL of Tris-acetate-EDTA (TAE) buffer was added. Then, 4 µL of SYBR Green 1 was mixed with the nanoparticles. Afterward, the mixture was stored at 4° C. for 20-25 minutes. Then, 7 µL of 6X DNA loading dye (Takara Bio Inc., Japan) was added. A one kb DNA ladder (Promega, Madison, WI) was used. The mixture solutions were loaded onto a 1% agarose gel, and electrophoresed for 30 minutes at 110 V.

A549 cells = test: MTS cytotoxicity assay in A549 cells; assay type: cell-based, human
Experimental: (§1) Cytotoxicity Assay. Cytotoxicity of GA, K100, and K9, PEI, and CaCl2 was determined using a Cell Titer 96® AQueous Non-Radioactive Cell Proliferation Assay (MTS) obtained from Promega (Madison, Wisconsin). A549 and HeLa cells were cultured in a 96-well plate as described previously. Cells were treated with the samples for ~24 hours. Then, the media were replaced with a mixture of 100 µL of fresh serum medium and 20 µL of MTS. The plate was incubated for 3-4 hours in the incubator. To determine cell viability, the absorbance of each well was measured by a microplate reader (SpectraMax; Molecular Devices Crope, CA) at 490 nm and normalized to untreated control cells.

HeLa cells = test: MTS cytotoxicity assay in HeLa cells; assay type: cell-based, human; details: ~24 hours treatment
Experimental: as §1

In the case of Glatiramer Acetate [GA], the “immobilization of pDNA in agarose gel” value (pDNA (pGL3)) is reported as “able to immobilize pDNA completely” and the cytotoxicity (A549 cells; up to 1 mg/mL, cell line not stated at the place (A549 and HeLa tested)) is reported as “negligible cytotoxicity”.

“K9: KKKKKKKKK (SEQ ID NO: 1), C-terminal amide, Mw = 1170.65 Da (KKKKKKKKK-NH2)” was tested, and the “immobilization of pDNA in agarose gel” value (pDNA (pGL3)) was “did not” and the “complexation of pDNA in agarose gel” value (pDNA (pGL3); N/P ratio of 1) was “did not completely complex pDNA”.

B1: K100: (KKKKKKKKKK)n=10 (SEQ ID NO: 2), Mw = 16,000 Da, high molecular weight polylysine (peptide)
chain: KKKKKKKKKKKKKKKKKKKKKKKKKKKKKKKKKKKKKKKKKKKKKKKKKKKKKKKKKKKKKKKKKKKKKKKKKKKKKKKKKKKKKKKKKKKKKKKKKKKK
modifications: ten repeats of SEQ ID NO:2 motif
In the case of B1, the “immobilization of pDNA in agarose gel” value (pDNA (pGL3)) is reported as “able to immobilize pDNA completely”, the “cytotoxicity (MTS)” value (HeLa cells) is reported as “highly cytotoxic at low concentrations” and the “cytotoxicity (MTS)” value (A549 cells; A549 cells, ~24 hours treatment) is reported as “highly cytotoxic at low concentrations”.
